The target in assay [1] is T1, CRF2-4 receptor, full-length, on transfected BaF3 or BHK cells (CRF2-4 alone) (UniProt Q08334 20-325, limits assumed).
T1 construct: whole, on cells; The full-length receptor on cells is tied only to Genbank Z17227; also called CFR2-4; BaF3/CRF2-4
T1 sequence (looked up): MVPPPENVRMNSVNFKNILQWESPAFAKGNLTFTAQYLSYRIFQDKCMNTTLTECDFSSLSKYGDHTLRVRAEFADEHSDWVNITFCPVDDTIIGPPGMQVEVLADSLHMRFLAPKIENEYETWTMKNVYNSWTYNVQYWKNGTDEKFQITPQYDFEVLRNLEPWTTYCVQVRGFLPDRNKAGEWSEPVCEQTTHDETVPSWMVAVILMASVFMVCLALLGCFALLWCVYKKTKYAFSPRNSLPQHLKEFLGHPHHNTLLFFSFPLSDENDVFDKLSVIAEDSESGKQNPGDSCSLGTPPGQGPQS
The assay can be described thus: flow cytometry, biotinylated IL-TIF-CEE plus PE-streptavidin on BaF3 transfectants (same results stated for BHK transfectants). From the text:
(§1) To test the binding properties of the IL-TIF ligand to several potential receptor components, BaF3 and BHK cells were transfected with expression plasmids including zcytor11 alone, CRF2-4 alone (Genbank Accession No. Z17227), zcytor11 (SEQ ID NO:1) and CRF2-4, or zcytoR11 and pDIRS1 (WIPO Publication WO99/46379, Schering Corporation, 1999), as described above. Untransfected BaF3 and BHK cells were included as controls. Cells were resuspended in FACS wash buffer (WB: PBS/1%BSA, supplemented with 3% human Ultraserum (Gemini BioProducts, Calabasas, Calif.)) counted and 1×10⁶ of each type were aliquoted into 5 ml polystyrene tubes. Cells were washed and pelleted, then incubated for 20 min on ice with 100 μl of WB only, or WB plus 10 μg/ml or 1 μg/ml biotinylated zcytolO protein. Cells were washed with 1.5 ml WB and pelleted, then incubated in 100 μl of 2.5 μg/ml phycoerthyrin-conjugated streptavidin (PE-SA, PharMingen, San Diego, Calif.) for another 20 min on ice. Cells were washed as before, resuspended in 0.4 ml of WB and analyzed on a FACScan using CellQuest software (Becton Dickinson, Mountain View, Calif.).
Background: Flow cytometry measures light scatter and fluorescence of single cells or particles in a stream.

Assay [2] has as its target T2, zcytor11 receptor, full-length, on transfected BaF3 or BHK cells (zcytor11 alone) (human, UniProt Q8N6P7 18-574).
T2 construct: also called BaF3/zcytor11
T2 sequence: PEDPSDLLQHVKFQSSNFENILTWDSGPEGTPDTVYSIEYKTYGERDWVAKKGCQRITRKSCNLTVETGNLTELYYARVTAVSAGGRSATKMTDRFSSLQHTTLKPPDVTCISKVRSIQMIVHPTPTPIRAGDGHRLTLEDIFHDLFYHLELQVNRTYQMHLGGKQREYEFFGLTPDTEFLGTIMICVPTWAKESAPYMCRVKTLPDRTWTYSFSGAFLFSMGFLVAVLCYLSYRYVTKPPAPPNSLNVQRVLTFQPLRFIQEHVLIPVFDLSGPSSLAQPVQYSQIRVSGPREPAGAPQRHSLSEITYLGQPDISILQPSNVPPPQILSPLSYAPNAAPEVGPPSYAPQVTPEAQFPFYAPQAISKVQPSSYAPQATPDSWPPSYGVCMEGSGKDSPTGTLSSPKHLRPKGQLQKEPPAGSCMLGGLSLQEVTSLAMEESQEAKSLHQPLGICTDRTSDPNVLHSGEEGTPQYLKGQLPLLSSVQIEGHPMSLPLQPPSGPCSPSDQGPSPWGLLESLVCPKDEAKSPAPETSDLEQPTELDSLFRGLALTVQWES
The assay can be described thus: flow cytometry, biotinylated IL-TIF-CEE at 10 or 1 µg/ml plus PE-streptavidin on BaF3 transfectants (same results stated for BHK transfectants).
From the text: as §1

Assay [3] addresses T3, zcytor11 and CRF2-4 receptors co-expressed on transfected BaF3 or BHK cells (human, UniProt Q08334 20-325, limits assumed).
T3 construct: whole, on cells; The two receptor subunits are co-transfected in one cell line; also called zcytor11/CRF2-4; BaF3/zcytor11/CRF2-4
T3 sequence 1: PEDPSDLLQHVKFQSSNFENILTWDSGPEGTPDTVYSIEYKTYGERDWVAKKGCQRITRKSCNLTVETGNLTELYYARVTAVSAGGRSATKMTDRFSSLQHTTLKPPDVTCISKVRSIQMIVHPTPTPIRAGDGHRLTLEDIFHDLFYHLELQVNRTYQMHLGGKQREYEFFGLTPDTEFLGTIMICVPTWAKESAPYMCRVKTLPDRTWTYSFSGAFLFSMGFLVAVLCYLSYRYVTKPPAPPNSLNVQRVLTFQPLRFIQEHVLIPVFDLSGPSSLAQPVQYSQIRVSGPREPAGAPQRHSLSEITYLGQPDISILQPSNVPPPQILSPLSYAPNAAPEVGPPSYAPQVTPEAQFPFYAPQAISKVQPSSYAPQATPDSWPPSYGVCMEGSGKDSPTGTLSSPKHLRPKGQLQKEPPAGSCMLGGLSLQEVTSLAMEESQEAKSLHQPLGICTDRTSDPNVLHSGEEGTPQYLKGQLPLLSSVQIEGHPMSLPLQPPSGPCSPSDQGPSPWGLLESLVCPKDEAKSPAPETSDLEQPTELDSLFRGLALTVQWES
T3 sequence 2: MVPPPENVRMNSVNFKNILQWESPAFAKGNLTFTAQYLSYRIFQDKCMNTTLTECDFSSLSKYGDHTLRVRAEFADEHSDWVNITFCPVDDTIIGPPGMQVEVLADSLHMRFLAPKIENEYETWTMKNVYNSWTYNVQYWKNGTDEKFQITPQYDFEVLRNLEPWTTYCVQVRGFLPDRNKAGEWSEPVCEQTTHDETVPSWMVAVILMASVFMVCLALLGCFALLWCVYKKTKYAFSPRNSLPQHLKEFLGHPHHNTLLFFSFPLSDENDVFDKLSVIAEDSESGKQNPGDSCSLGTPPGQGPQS
Described as above.
From the text: as §1

B1: biotinylated human IL-TIF-CEE (ligand)
chain: APISSHCRLDKSNFQQPYITNRTFMLAKEASLADNNTDVRLIGEKLFHGVSMSERCYLMKQVLNFTLEEVLFPQSDRFQPYMQEVVPFLARLSNRLSTCHIEGDDLHIQRNVQKLKDTVKKLGESGEIKAIGELDLLFMSLRNACIEYMPME
modifications: biotinylated with EZ-link Sulfo-NHS-LC-biotin (sites not given)
notes: also called biotin-IL-TIF; IL-TIF ligand
With B1, the binding result is reported as “no binding (tested: 10 µg/ml or 1 µg/ml biotinylated protein)” in assay [1], “binds” in assay [2] and “binds” in assay [3].

Values taken from US20030157096A1 (ZymoGenetics, published 2003).
